Measured values taken from patent US20190314479A1.

Target: HLA-A2 molecules
Test: T2A2 peptide binding assay to HLA-A2

Q: With QQYNKPLCDL (modifications not checked) [HPV-16 E6 native peptide E6-3 (E6 90-99)] as the binder, how does the T2A2 Binding read?
A: The T2A2 Binding was 1020.

Q: For YMLDLQPET (modifications not checked) [HPV-16 E7 native peptide E7-1 (E7 11-19)], which T2A2 Binding is on record?
A: Its T2A2 Binding is 1100.
